Legend:
chd1_human CHD1 [1] = molecular target: chd1_human CHD1 (UniProt O14646)
chd1_human CHD1 [2] = molecular target: chd1_human CHD1 (UniProt O14646); remark: listed apart in the source

UniProt O14646, sequence (O14646 whole entry): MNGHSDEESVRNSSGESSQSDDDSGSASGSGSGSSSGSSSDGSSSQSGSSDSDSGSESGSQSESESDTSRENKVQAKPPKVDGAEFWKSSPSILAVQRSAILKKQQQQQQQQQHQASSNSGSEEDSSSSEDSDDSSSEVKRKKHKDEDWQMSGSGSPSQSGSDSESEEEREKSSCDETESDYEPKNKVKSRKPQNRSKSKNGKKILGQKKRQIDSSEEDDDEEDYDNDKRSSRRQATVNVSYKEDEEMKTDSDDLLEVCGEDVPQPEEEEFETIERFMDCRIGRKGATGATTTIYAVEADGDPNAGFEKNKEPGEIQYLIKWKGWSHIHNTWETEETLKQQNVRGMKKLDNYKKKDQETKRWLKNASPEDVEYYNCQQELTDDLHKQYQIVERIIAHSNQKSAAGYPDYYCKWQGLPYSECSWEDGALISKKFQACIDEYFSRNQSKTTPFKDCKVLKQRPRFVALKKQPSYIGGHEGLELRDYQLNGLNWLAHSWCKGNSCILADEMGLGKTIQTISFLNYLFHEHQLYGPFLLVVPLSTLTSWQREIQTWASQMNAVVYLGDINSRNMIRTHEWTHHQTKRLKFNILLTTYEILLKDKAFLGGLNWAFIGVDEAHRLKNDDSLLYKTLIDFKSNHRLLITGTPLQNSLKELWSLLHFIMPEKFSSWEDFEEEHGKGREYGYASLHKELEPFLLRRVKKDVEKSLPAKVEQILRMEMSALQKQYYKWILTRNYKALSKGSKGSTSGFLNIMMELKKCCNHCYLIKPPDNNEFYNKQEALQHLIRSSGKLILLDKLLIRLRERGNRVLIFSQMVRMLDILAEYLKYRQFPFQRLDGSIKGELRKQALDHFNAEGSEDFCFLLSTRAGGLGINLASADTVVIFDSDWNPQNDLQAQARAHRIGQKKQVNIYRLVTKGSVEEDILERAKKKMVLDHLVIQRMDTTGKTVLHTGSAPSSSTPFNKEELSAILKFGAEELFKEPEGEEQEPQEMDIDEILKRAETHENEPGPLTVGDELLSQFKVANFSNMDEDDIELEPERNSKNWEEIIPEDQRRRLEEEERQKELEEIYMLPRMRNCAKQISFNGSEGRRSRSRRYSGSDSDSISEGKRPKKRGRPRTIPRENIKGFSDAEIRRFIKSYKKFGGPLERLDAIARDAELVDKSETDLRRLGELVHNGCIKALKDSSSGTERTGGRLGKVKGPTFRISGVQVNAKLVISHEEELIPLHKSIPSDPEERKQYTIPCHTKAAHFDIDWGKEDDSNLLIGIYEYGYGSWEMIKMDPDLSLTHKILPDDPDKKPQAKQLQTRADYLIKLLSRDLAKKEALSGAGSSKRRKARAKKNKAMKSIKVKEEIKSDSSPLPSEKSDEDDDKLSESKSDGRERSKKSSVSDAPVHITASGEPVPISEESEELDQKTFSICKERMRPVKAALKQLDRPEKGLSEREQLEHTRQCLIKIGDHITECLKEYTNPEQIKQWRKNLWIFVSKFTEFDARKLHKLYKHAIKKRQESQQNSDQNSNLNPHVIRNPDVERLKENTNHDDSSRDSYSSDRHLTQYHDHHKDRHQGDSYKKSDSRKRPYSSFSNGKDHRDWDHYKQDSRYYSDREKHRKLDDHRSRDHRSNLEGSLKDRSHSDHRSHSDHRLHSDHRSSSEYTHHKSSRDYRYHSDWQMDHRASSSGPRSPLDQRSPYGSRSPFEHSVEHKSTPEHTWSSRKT

| Substance | effect of a mutation on the interaction (chd1_human CHD1 [1]) | effect of a mutation on the interaction (chd1_human CHD1 [2]) |
| --- | --- | --- |
| Lysine-specific histone demethylase 1A (Homo sapiens) (from UniProt O60341-1) K114A | disrupting interaction strength |  |
| Lysine-specific histone demethylase 1A (Homo sapiens) (from UniProt O60341-1) R113A |  | disrupting interaction strength |
